Data on 1 substance can be found in patent US20060154340A1.

The target of this experiment is trypsin. Kind of experiment: cell-based or functional assay.

“TrxA-PI2JO fusion protein (thioredoxin fused to potato proteinase inhibitor II isomer PI2JO, from plasmid pKBEPI-5 in E. coli BL21trxB(DE3)) (from UniProt P0AA25 1-109)” gave a Trypsin inhibition activity (hydrolysis of TAME by trypsin followed at 247 nm; one unit = amount causing 50% inhibition of trypsin) (Trypsin-Inhibition-Unit/mL) of 1390.
